Target: DsbC-MPK4 fusion (construct pT7-DsbC-MPK4) (E. coli | Leishmania major) (UniProt P0AEG6)
Assay: SEC; analytical size exclusion chromatography of the IMAC purified fraction of the uncleaved DsbC-MPK4 fusion; peak at 8.4 ml; apparent molecular weight

“DsbC-MPK4 fusion (construct pT7-DsbC-MPK4) (from UniProt P0AEG6 21-236; Q4QD66 1-363)” gave a stoichiometry N of 10.

Source: PMC3934309
